Among the data in publication PMC3635982 are infectivity of C. pneumoniae for cells preincubated 2 h with EGF and infectivity of C. pneumoniae for HEp-2 cells pretreated 2 h with cetuximab values, retold here.

In test [1] the target is human epidermal growth factor receptor, endogenous in HEp-2 cells (human (endogenous in HEp-2)) (UniProt P00533).
The target is the same in test [2]. This is another data set of the same source.

For the substance “Pmp21 on the surface of C. pneumoniae elementary bodies (from UniProt Q9Z6U5 31-1609) (natural protein)”, the infectivity of C. pneumoniae for cells preincubated 2 h with EGF in test [1] was determined as 47 % reduction. The infectivity of C. pneumoniae for HEp-2 cells pretreated 2 h with cetuximab in test [2] is 54 % reduction.
